Holding throughout (assay): negative-staining electron microscopy
The target in experiment [1] is F97L-HBc capsids (Hepatitis B virus (genotype D; strain ayw)) (UniProt P03146).
Experiment [2] addresses L60V-HBc capsids (Hepatitis B virus (genotype D; strain ayw)) (UniProt P03146).
Experiment [3] addresses P5T-HBc capsids (Hepatitis B virus (genotype D; strain ayw)) (UniProt P03146).

In experiment [1], “F97L-HBc capsids (from UniProt P03146 1-183) (natural protein)” returned a stoichiometry N (subunits per capsid) of 240.
In experiment [2], “L60V-HBc capsids (from UniProt P03146 1-183) (natural protein)” showed a stoichiometry N (subunits per capsid) of 240.
As for “P5T-HBc capsids (from UniProt P03146 1-183) (natural protein)”, the stoichiometry N (subunits per capsid) in experiment [3] is 240.
